As usually defined, the Kd is a measure of binding affinity in units of concentration.

The source of these data is patent US20120065379A1 (Chugai, published 2012).

The target of experiment [1] is T1, Soluble human FcRn (complex of FcRn and β2-microglobulin) (human, UniProt P55899 24-290; P61769 21-119).
T1 construct: Co-expressed in HEK293H cells and purified from the culture supernatant; also called hFcRn
Briefly: SPR (Biacore 3000), pH 6.0; antibody captured, human FcRn as analyte; steady state affinity. Here is the method: (§1) Human FcRn was prepared according to the method described in Reference Example 2. The binding to human FcRn was assessed using Biacore 3000. An antibody was bound to Protein L or rabbit anti-human IgG Kappa chain antibody immobilized onto a sensor chip, human FcRn was added as an analyte for interaction with the antibody, and the affinity (KD) was calculated from the amount of bound human FcRn. Specifically, Protein L or rabbit anti-human IgG Kappa chain antibody was immobilized onto sensor chip CMS (BIACORE) by the amine coupling method using 50 mM Sodium-phosphate buffer (pH 6.0) containing 150 mM NaCl as the running buffer. Then, IL6R H0-IgG1/L0-k0 and IL6R H0-M82/L0-k0 was each diluted with a running buffer containing 0.02% Tween20, and injected to be bound to the chip. Human FcRn was then injected and the binding of the human FcRn to antibody was assessed.
(§2) The affinity was computed using BIAevaluation Software. The obtained sensorgram was used to calculate the amount of hFcRn bound to the antibody immediately before the end of human FcRn injection. The affinity of the antibody for human FcRn was calculated by fitting with the steady state affinity method.
Background: In SPR one partner is held on a chip, and binding of the other changes the refractive index at the surface.

Experiment [2] addresses T1, Soluble human FcRn (complex of FcRn and …). In words: SPR (Biacore 3000), pH 6.0; antibody captured on Protein L or rabbit anti-human IgG Kappa chain antibody, human FcRn as analyte; steady state affinity fit. The method, then: as §1, §2

T1 sequence (P55899 24-290 limits assumed, chain 1 of 2): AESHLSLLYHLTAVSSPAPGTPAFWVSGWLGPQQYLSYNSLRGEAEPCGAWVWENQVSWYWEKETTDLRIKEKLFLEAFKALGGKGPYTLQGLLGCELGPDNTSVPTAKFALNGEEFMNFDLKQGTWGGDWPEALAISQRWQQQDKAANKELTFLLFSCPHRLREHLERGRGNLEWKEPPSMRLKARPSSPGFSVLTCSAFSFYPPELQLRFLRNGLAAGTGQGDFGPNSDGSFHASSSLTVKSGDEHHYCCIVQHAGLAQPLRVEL
T1 sequence (P61769 21-119 limits assumed, chain 2 of 2): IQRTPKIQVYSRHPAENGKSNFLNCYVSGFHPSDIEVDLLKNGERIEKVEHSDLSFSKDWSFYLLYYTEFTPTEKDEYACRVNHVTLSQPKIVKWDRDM

B1: IL6R H0-M82/L0-k0 (antibody, IgG2)
heavy: QVQLQESGPGLVRPSQTLSLTCTVSGYSITSDHAWSWVRQPPGRGLEWIGYISYSGITTYNPSLKSRVTMLRDTSKNQFSLRLSSVTAADTAVYYCARSLARTTAMDYWGQGSLVTVSSASTKGPSVFPLAPCSRSTSESTAALGCLVKDYFPEPVTVSWNSGALTSGVHTFPAVLQSSGLYSLSSVVTVPSSNFGTQTYTCNVDHKPSNTKVDKTVERKSSVECPPCPAPPVAGPSVFLFPPKPKDTLMISRTPEVTCVVVDVSQEDPEVQFNWYVDGVEVHNAKTKPREEQFNSTFRVVSVLTVVHQDWLNGKEYKCKVSNKGLPAPIEKTISKTKGQPREPQVYTLPPSQEEMTKNQVSLTCLVKGFYPSDIAVEWESNGQPENNYKTTPPMLDSDGSFFLYSKLTVDKSRWQEGNVFSCSVMHEALHNHYTQKSLSLSP
light: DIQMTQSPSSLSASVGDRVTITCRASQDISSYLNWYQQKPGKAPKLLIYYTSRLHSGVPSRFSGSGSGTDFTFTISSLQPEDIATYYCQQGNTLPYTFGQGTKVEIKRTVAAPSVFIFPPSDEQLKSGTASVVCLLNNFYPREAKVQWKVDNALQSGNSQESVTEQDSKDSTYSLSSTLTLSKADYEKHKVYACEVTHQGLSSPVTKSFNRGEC
notes: Same variable regions as m1; The M82 constant region is an IgG2 variant with C219S, C220S, H268Q, R355Q and Q419E (EU numbering) and with Gly446 and Lys447 deleted; also called M82-k0
For B1, the “fold increase of binding compared to IL6R H0-IgG1/L0-k0” value in experiment [1] is roughly 1.34 times. Moreover, the Kd in experiment [2] stood at 1210 nM.
